Assay results as given in US20250297216A1, “METHOD FOR PRODUCING MILK LIKE PRODUCTS” (SOCIETE DES PRODUITS NESTLE S.A., priority 2021, published 2025).

System: iPSCs derived mammary gland organoids
Experiment: Flow cytometry quantification of mammary gland progenitor markers in 3D iPSC differentiation (42-day and shortened 31-day protocols)
Format: cell-based, human
Details: 20 ng/ml BMP4, 1 μM RA, single or combination, 42 days and 31 days protocols, compared to control condition
Description: Scheme summarizing different procedures for the generation of mammary gland progenitors in 42 days (a), using bone morphogenetic protein 4 (BMP4) (b), retinoic acid (RA) (c), combinations of BMP4 and RA (d) and their combination in shortened time-course (31 days) (e). The red boxes indicate the period of addition of BMP4 and/or RA.

B1: BMP4: bone morphogenetic protein 4, growth factor added to the culture medium (protein, UniProt P12644 293-408, looked up)
Bone morphogenetic protein 4: SPKHHSQRARKKNKNCRRHSLYVDFSDVGWNDWIVAPPGYQAFYCHGDCPFPLADHLNSTNHAIVQTLVNSVNSSIPKACCVPTELSAISMLYLDEYDKVVLKNYQEMVVEGCGCR
With B1 the “expression of mammary gland progenitor markers (EpCAM, CD49f, MUC1, GATA3)” value was “can induce the expression of mammary gland progenitor markers”.
